We go through 3 molecules from patent US6429304B1, “Nucleic acids encoding a katanin p60 subunit” (The Regents of the University of California, priority 1998, dated 2002).

Data set [1] relates to DAPI-labeled microtubules. As to the kind of experiment: DAPI fluorescence microtubule disassembly (severing) assay. The format is biochemical, bovine. The settings on record: 0.2 μM protein, 2 μM microtubules. The text has this: To better compare the microtubule severing activities of p60 and p60/p80, we developed a quantitative microtubule disassembly assay based upon a previous finding that DAPI fluorescence intensity is higher when this dye is bound to polymerized versus free tubulin (Heusele et al. (1987) Eur. J Biochem. 165: 613-620). […] This slower rate of microtubule disassembly is consistent with the previously described 2-fold decrease in ATPase activity of p60 compared with p60/p80.
ATPase activity was measured by a modified malachite green method (Kodama et al. (1986) J. Biochem. 99: 1465-1472). […] Microtubule concentration was determined by measuring the absorbance at 275 nm in 6 M guanidine HCl by using a molecular mass of 110 kDa and an extinction coefficient of 1.03 ml mg^−1 cm^−1 (Hackney (1988) Proc. Natl. Acad Sci. USA, 85: 6314-6318). […]
DAPI severing assays were performed using conditions where the change in fluorescence intensity was linear with the amount of tubulin polymer added (Heusele et al. (1987) Eur. J Biochem. 165: 613-620). […] The reaction volume was 80 μL, and fluorescence intensity was measured by exciting at 370 nm. and measuring the emission at 450 mn using a model 8100 fluorimeter (SLM Instruments) in photon counting mode.

A short description of data set [2]: ATPase assay (modified malachite green method). The format is biochemical. Particulars: for microtubule concentration at peak stimulation of ATP turnover: non-hyperbolic, decreases at higher microtubule concentrations. The method, then: ATPase activity was measured by a modified malachite green method (Kodama et al. (1986) J. Biochem. 99: 1465-1472). ATPase reactions of 50-100 μl were carried out in a buffer previously used for measuring the ATPase activity of native katanin [20 mM K-HEPES pH 8.0, 25 mM potassium glutamate 2 mM MgCl2, 10% glycerol (v/v), 0.02% Triton X-100 (w/v), 1 mg/ml BSA] (McNally and Vale (1993) Cell, 75: 419-429), except that soybean trypsin inhibitor (SBTI) was replaced by BSA as a carrier protein because SBTI increased background phosphate contamination. An ATP regenerating system, consisting of 0.5-1.0 mM phosphoenol pyruvate and 2 units of pyruvate kinase, was included to minimize the inhibition by ADP observed previously for native katanin (McNally and Vale (1993) Cell, 75: 419-429). Microtubules were prepared from bovine brain tubulin (Hyman et al. (1990) Meth. Enzymol. 196: 303-319; and Williams and Lee (1982) Meth Enzymol. 85B: 376-385). After assembly, microtubules were sedimented (230,000×g; 10 min), resuspended in ATPase buffer lacking BSA, and the polymers were resuspended by repeated passage through a 27 gauge needle. Microtubule concentration was determined by measuring the absorbance at 275 nm in 6 M guanidine HCl by using a molecular mass of 110 kDa and an extinction coefficient of 1.03 ml mg^−1 cm^−1 (Hackney (1988) Proc. Natl. Acad Sci. USA, 85: 6314-6318). ATPase reactions were carried out at room temperature, and were initiated by addition of katanin.

For data set [3], the system named is Taxol-stabilized, rhodamine-labeled microtubules. Description: Microscope-based microtubule severing assay. The settings on record: for time until microtubules were completely disassembled: 0.1 μM protein, 1 mM ATP; for microtubule severing (in words): p60, p60/p80 0.1 μM, p80 0.5 μM (5-fold higher). The format is biochemical. The method, then:
FIGS. 5A, 5B, and 5C illustrate the activities of recombinant katanin subunits. […] Taxol-stabilized, rhodamine-labeled microtubules were adsorbed onto the surface of a microscope perfusion chamber, and then recombinant katanin subunits were introduced. The time elapsed after perfusing p60/p80 (0.1 μM), p60 (0.1 μM), or p80 (0.5 μM) is shown. The recombinant co-expressed p60/p80 and p60, but not p80, can sever and disassemble microtubules. Scale bar, 10 μm.
Microscope-based severing assays were performed using previously published procedures (McNally and Vale (1993) Cell, 75: 419-429), except that microtubules were immobilized by first perfusing flow cells with a bacterially expressed kinesin mutant that binds strongly to microtubules but is unable to hydrolyze ATP (K560, G234A mutant; R. Vale and E. Taylor, unpublished results). Assays were performed in 20 mM Hepes (pH 7.5), 2 mM MgCl2, 1 mM ATP with an oxygen scavenger system consisting of glucose oxidase (220 μg/ml), catalase (36 μg/ml), glucose (22.5 mM), and 2-mercaptoethanol (71.5 mM). Images were captured using a cooled, slow-scan CCD (Photometerics) and processed using Adobe Photoshop.

B1: p60: S. purpuratus katanin p60 subunit, 516 a.a. AAA ATPase (SEQ ID NO:1), baculovirus-expressed with N-terminal His(6) tag (protein, listed as Strongylocentrotus purpuratus)
chain: MSVDEICENTKMGREYALLGNYETSLVYYQGVLQQIQKLLTSVHEPQRKHQWQTIRQELSQEYEHVKNITKTLNGFKSEPAAPEPAPNHRAAPFSHHQHAAKPAAAEPARDPDVWPPPTPVDHRPSPPYQRAARKDPPRRSEPSKPANRAPGNDRGGRGPSDRRGDARSGGGGRGGARGSDKDKNRGGKSDKDKKAPSGEEGDEKKFDPAGYDKDLVENLERDIVQRNPNVHWADIAGLTEAKRLLEEAVVLPLWMPDYFKGIRRPWKGVLMVGPPGTGKTMLAKAVATECGTTFFNVSSASLTSKYHGESEKLVRLLFEMARFYAPSTIFIDEIDSICSKRGTGSEHEASRRVKSELLIQMDGVSGPSAGEESSKMVMVLAATNFPWDIDEALRRRLEKRIYIPLPEIDGREQLLRINLKEVPLADDIDLKSIAEKMDGYSGADITNVCRDASMMAMRRRIQGLRPEEIRHIPKEELNQPSTPADFLLALQKVSKSVGKEDLVKYMAWMEEFGSV
modifications: N-terminal His6 tag; katanin p60 subunit
Take B1: the “rate of microtubule disassembly compared with p60/p80” value in data set [1] is on record as “half as active as p60/p80”. Besides, the “ATPase activity (in words)” value in data set [2] (baculovirus-expressed subunit alone) is recorded as “displayed a microtubule-stimulated ATPase activity”. Also, the “maximal basal and microtubule-stimulated ATPase rates relative to p60/p80 heterodimer” value in data set [2] (compared with p60/p80) amounted to 2 fold lower. Moreover, the “microtubule concentration at peak stimulation of ATP turnover” value in data set [2] is on record as ~2 μM tubulin. Moreover, in data set [3], the “time until microtubules were completely disassembled” value is on record as 5 min and the “microtubule severing (in words)” value is “severed microtubules”.

B2: p60/p80: co-expressed recombinant katanin p60/p80 heterodimer complex from baculovirus-infected insect cells (protein)
chain 1: HHHHHHMSVDEICENTKMGREYALLGNYETSLVYYQGVLQQIQKLLTSVHEPQRKHQWQTIRQELSQEYEHVKNITKTLNGFKSEPAAPEPAPNHRAAPFSHHQHAAKPAAAEPARDPDVWPPPTPVDHRPSPPYQRAARKDPPRRSEPSKPANRAPGNDRGGRGPSDRRGDARSGGGGRGGARGSDKDKNRGGKSDKDKKAPSGEEGDEKKFDPAGYDKDLVENLERDIVQRNPNVHWADIAGLTEAKRLLEEAVVLPLWMPDYFKGIRRPWKGVLMVGPPGTGKTMLAKAVATECGTTFFNVSSASLTSKYHGESEKLVRLLFEMARFYAPSTIFIDEIDSICSKRGTGSEHEASRRVKSELLIQMDGVSGPSAGEESSKMVMVLAATNFPWDIDEALRRRLEKRIYIPLPEIDGREQLLRINLKEVPLADDIDLKSIAEKMDGYSGADITNVCRDASMMAMRRRIQGLRPEEIRHIPKEELNQPSTPADFLLALQKVSKSVGKEDLVKYMAWMEEFGSV
chain 2: HHHHHHMATKRAWKLQELVAHSSNVNCLALGPMSGRVMVTGGEDKKVNLWAVGKQNCIISLSGHTSPVDSVKFNSSEELVVAGSQSGTMKIYDLEPAKIVRTLTGHRNSIRCMDFHPFGEFVASGSTDTNVKLWDVRRKGCIYTYKGHSDQVNMIKFSPDGKWLVTASEDTTIKLWDLTMGKLFQEFKNHTGGVTGIEFHPNEFLLASGSSDRTVQFWDLETFQLVSSTSPGASAVRSISFHPDGSYLFCSSQDMLHAFGWEPIRCFDTFSVGWGKVADTVIASTQLIGASFNATNVSVYVADLSRMSTTGIAQEPQSQPSKTPSGGAEEVPSKPLTASGRKNFVRERPHTTSSKQRQPDVKSEPERQSPTQDEGVKDDDATDIKDPDSYAKIFSPKTRVDHSPERNAQPFPAPLDVPGAQEPEPFKHPPKPAAAAAVAPVSRAPAPSASDWQPAQANPAPNRVPAATKPVPAQEVAPSRKPDPISTIIPSDRNKPANLDMDAFLPPAHAQQAPRVNAPASRKQSDSERIEGLRKGHDSMCQVLSSRHRNLDVVRAIWTAGDAKTSVESVVNMKDQAILVDILNIMLLKKSLWNLDMCVVVLPRLKELLSSKYENYVHTSCACLKLILKNFTSLFNQNIKCPPSGIDITREERYNKCSKCYSYLIATRGYVEEKQHVSGKLGSSFRELHLLLDQLE
Turning to B2, the ATP turnover rate in data set [2] (basal, without microtubules) is on record as 0.3 ATP/sec/heterodimer. In addition, the “stimulation of ATPase activity by microtubules” value in data set [2] (maximal stimulation) is reported as ~10 fold. In data set [2], the “microtubule concentration at peak stimulation of ATP turnover” value is on record as ~2 μM tubulin. Also, in data set [3], the “time until microtubules were completely disassembled” value came to 5 min and the “microtubule severing (in words)” value is listed as “severed microtubules”.

B3: Katanin: heterodimer of 60 kDa and 80 kDa subunits, microtubule-severing ATPase from sea urchin eggs (protein)
chain 1: HHHHHHMSVDEICENTKMGREYALLGNYETSLVYYQGVLQQIQKLLTSVHEPQRKHQWQTIRQELSQEYEHVKNITKTLNGFKSEPAAPEPAPNHRAAPFSHHQHAAKPAAAEPARDPDVWPPPTPVDHRPSPPYQRAARKDPPRRSEPSKPANRAPGNDRGGRGPSDRRGDARSGGGGRGGARGSDKDKNRGGKSDKDKKAPSGEEGDEKKFDPAGYDKDLVENLERDIVQRNPNVHWADIAGLTEAKRLLEEAVVLPLWMPDYFKGIRRPWKGVLMVGPPGTGKTMLAKAVATECGTTFFNVSSASLTSKYHGESEKLVRLLFEMARFYAPSTIFIDEIDSICSKRGTGSEHEASRRVKSELLIQMDGVSGPSAGEESSKMVMVLAATNFPWDIDEALRRRLEKRIYIPLPEIDGREQLLRINLKEVPLADDIDLKSIAEKMDGYSGADITNVCRDASMMAMRRRIQGLRPEEIRHIPKEELNQPSTPADFLLALQKVSKSVGKEDLVKYMAWMEEFGSV
chain 2: HHHHHHMATKRAWKLQELVAHSSNVNCLALGPMSGRVMVTGGEDKKVNLWAVGKQNCIISLSGHTSPVDSVKFNSSEELVVAGSQSGTMKIYDLEPAKIVRTLTGHRNSIRCMDFHPFGEFVASGSTDTNVKLWDVRRKGCIYTYKGHSDQVNMIKFSPDGKWLVTASEDTTIKLWDLTMGKLFQEFKNHTGGVTGIEFHPNEFLLASGSSDRTVQFWDLETFQLVSSTSPGASAVRSISFHPDGSYLFCSSQDMLHAFGWEPIRCFDTFSVGWGKVADTVIASTQLIGASFNATNVSVYVADLSRMSTTGIAQEPQSQPSKTPSGGAEEVPSKPLTASGRKNFVRERPHTTSSKQRQPDVKSEPERQSPTQDEGVKDDDATDIKDPDSYAKIFSPKTRVDHSPERNAQPFPAPLDVPGAQEPEPFKHPPKPAAAAAVAPVSRAPAPSASDWQPAQANPAPNRVPAATKPVPAQEVAPSRKPDPISTIIPSDRNKPANLDMDAFLPPAHAQQAPRVNAPASRKQSDSERIEGLRKGHDSMCQVLSSRHRNLDVVRAIWTAGDAKTSVESVVNMKDQAILVDILNIMLLKKSLWNLDMCVVVLPRLKELLSSKYENYVHTSCACLKLILKNFTSLFNQNIKCPPSGIDITREERYNKCSKCYSYLIATRGYVEEKQHVSGKLGSSFRELHLLLDQLE
B3: the “basal ATPase activity” value in data set [2] (basal) was determined as 0.3 ATP/katanin/sec. In data set [2] (microtubule-stimulated), the “maximal microtubule-stimulated ATPase rate” value is given as 3 ATP/katanin/sec.
